Reference: paper PMC5479810

How the values were obtained:
[1] = biological target: Tumor necrosis factor alpha (UniProt P01375)
[2] = biological target: Tumor necrosis factor alpha (UniProt P01375); remark: listed apart in the source

UniProt P01375, sequence (P01375 whole entry): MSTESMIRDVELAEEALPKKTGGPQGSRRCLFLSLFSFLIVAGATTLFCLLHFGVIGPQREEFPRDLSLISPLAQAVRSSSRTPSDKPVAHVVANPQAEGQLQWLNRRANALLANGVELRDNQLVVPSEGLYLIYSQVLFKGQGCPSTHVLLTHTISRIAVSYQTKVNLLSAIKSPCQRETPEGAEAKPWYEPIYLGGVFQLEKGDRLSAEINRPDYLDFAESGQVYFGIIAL

Q: What does the source list for “Etanercept biosimilar GP2015 (Erelzi) (Fc fusion)”?
A: % Potency (redox: after serum-like redox conditions), NFκB-luciferase reporter gene assay; GP2015 DP (30986553), 1.5% C78-C88 [1]: 103%; % Potency (redox: after serum-like redox conditions), NFκB-luciferase reporter gene assay; GP2015 DP (30986557), 1.3% C78-C88 [1]: 101%; % Potency (redox: after serum-like redox conditions), NFκB-luciferase reporter gene assay; GP2015 DP (31161503), 1.7% C78-C88 [1]: 98%; % Potency (redox: after serum-like redox conditions), NFκB-luciferase reporter gene assay; GP2015 DS (B280815), 1.2% C78-C88 [1]: 103%; % Potency (redox: after serum-like redox conditions), NFκB-luciferase reporter gene assay; GP2015 process intermediate (CAP.E), 1.6% C78-C88 [1]: 98%; % Potency (untreated), relative to reference standard, NFκB-luciferase reporter gene assay; GP2015 DP (30986553), 1.2% C78-C88 [1]: 98%; % Potency (untreated), relative to reference standard, NFκB-luciferase reporter gene assay; GP2015 DP (30986557), 1.8% C78-C88 [1]: 97%; % Potency (untreated), relative to reference standard, NFκB-luciferase reporter gene assay; GP2015 DP (31161503), 1.2% C78-C88 [1]: 100%; % Potency (untreated), relative to reference standard, NFκB-luciferase reporter gene assay; GP2015 DS (B280815), 1.0% C78-C88 [1]: 99%; % Potency (untreated), relative to reference standard, NFκB-luciferase reporter gene assay; GP2015 process intermediate (CAP.E), 3.4% C78-C88 [1]: 76%; potency (TNFα inhibition NFκB-luciferase reporter gene assay in HEK293 cells); main peak of large scale HIC separation of GP2015 [2]: 100%

Q: “Etanercept reference product Enbrel (Fc fusion)” was tested. Which % Potency (redox: after serum-like redox conditions), NFκB-luciferase reporter gene assay; Enbrel (1034018), 1.8% C78-C88 [1] did it give?
A: 96%

Q: And the % Potency (redox: after serum-like redox conditions), NFκB-luciferase reporter gene assay; Enbrel (1034842), 1.8% C78-C88 [1]?
A: 95%

Q: And the % Potency (redox: after serum-like redox conditions), NFκB-luciferase reporter gene assay; Enbrel (1040542), 1.7% C78-C88 [1]?
A: 107%

Q: What about the % Potency (redox: after serum-like redox conditions), NFκB-luciferase reporter gene assay; Enbrel (1062728), 1.8% C78-C88 [1] of the same substance?
A: 98%

Q: And the % Potency (redox: after serum-like redox conditions), NFκB-luciferase reporter gene assay; Enbrel (J13793), 1.6% C78-C88 [1]?
A: 100%

Q: What about the % Potency (untreated), relative to reference standard, NFκB-luciferase reporter gene assay; Enbrel (1034018), 2.8% C78-C88 [1] of the same substance?
A: 81%

Q: And the % Potency (untreated), relative to reference standard, NFκB-luciferase reporter gene assay; Enbrel (1034842), 2.5% C78-C88 [1]?
A: 85%

Q: What about the % Potency (untreated), relative to reference standard, NFκB-luciferase reporter gene assay; Enbrel (1040542), 2.6% C78-C88 [1] of the same substance?
A: 89%

Q: And the % Potency (untreated), relative to reference standard, NFκB-luciferase reporter gene assay; Enbrel (1062728), 2.5% C78-C88 [1]?
A: 85%

Q: What about the % Potency (untreated), relative to reference standard, NFκB-luciferase reporter gene assay; Enbrel (J13793), 2.3% C78-C88 [1] of the same substance?
A: 92%

Q: With “GP2015 late eluting HIC fraction (etanercept enriched in incorrectly disulfide-bridged variants) (Fc fusion)” as the substance, how does the % Potency (redox: after serum-like redox conditions that reshuffle the incorrect bridges), NFκB-luciferase reporter gene assay; GP2015 late eluting HIC fraction, 2.0% C78-C88 [1] read?
A: 93%

Q: What about the % Potency (untreated), relative to reference standard, NFκB-luciferase reporter gene assay; GP2015 late eluting HIC fraction, 5.5% C78-C88 [1] of the same substance?
A: 58%
